From patent US11357847B2, “Modified HSV gD protein and vaccine containing same” (KM Biologics Co., Ltd., priority 2017, dated 2022)
Changes are numbered by the printed parent chain. Names and notes keep the numbering of the source.

B1: gD1-315V (protein)
chain: KYALADPSLKMADPNRFRGKNLPVLDQLTDPPGVKRVYHIQPSLEDPFQPPSIPITVYYAVLERACRSVLLHAPSEAPQIVRGASDEARKHTYNLTIAWYRMGDNCAIPITVMEYTECPYNKSLGVCPIRTQPRWSYYDSFSAVSEDNLGFLMHAPAFETAGTYLRLVKINDWTEITQFILEHRARASCKYALPLRIPPAACLTSKAYQQGVTVDSIGMLPRFIPENQRTWALYSLKIAGWHGPKPPYTSTLLPPELSDTTNATQPELVPEDPEDSALLEDPAGTVSSQIPPNWHIPSIQDVAPHHAPAAPSNPGHHHHHH
B2: gD1-315v5V: gD1-315 with glycochains at SC-A, SC-F and V231W (protein)
chain: B1 chain with P50N, P51A, R186N
B3: gD1-315v3: gD1-315 with glycochain introduced at P50 (SC-F) (protein)
chain: B1 chain with P50N, P51A, W231V

Test system: various anti-gD2 antibodies
Experiment: Reactivity of gD variants with anti-gD2 antibodies (competitive ELISA)
Assay type: binding, human
Conditions: immobilized gD variant
Description: Each anti-gD2 monoclonal antibody and each gD variant were expressed using an Expi293 expression system.

Which “Reactivity with anti-gD2 antibody 1” value does the source give for B1 here?
The value was “+ ((+): 70% or more)”.

And the “Reactivity with anti-gD2 antibody 5” value?
Its value is “+ ((+): 70% or more)”.

And the “Reactivity with anti-gD2 antibody 13” value?
Its value is “+ ((+): 70% or more)”.

What about the “Reactivity with anti-gD2 antibody 72” value of the same molecule?
The value was “+ ((+): 70% or more)”.

What about the “Reactivity with anti-gD2 antibody 75” value of the same molecule?
The value was “+ ((+): 70% or more)”.

And the “Reactivity with anti-gD2 antibody 78” value?
Its value is “+ ((+): 70% or more)”.

What about the “Reactivity with anti-gD2 antibody 82” value of the same molecule?
The value was “+ ((+): 70% or more)”.

For B2, which “Reactivity with anti-gD2 antibody 1” value is on record?
The value was “+ ((+): 70% or more)”.

What about the “Reactivity with anti-gD2 antibody 5” value of the same molecule?
The value was “− ((−): less than 30%)”.

What about the “Reactivity with anti-gD2 antibody 13” value of the same molecule?
Its value is “+ ((+): 70% or more)”.

And the “Reactivity with anti-gD2 antibody 72” value?
Its value is “± ((±): 30% or more and less than 70%)”.

And the “Reactivity with anti-gD2 antibody 75” value?
The value was “± ((±): 30% or more and less than 70%)”.

What about the “Reactivity with anti-gD2 antibody 78” value of the same molecule?
Its value is “− ((−): less than 30%)”.

And the “Reactivity with anti-gD2 antibody 82” value?
The value was “+ ((+): 70% or more)”.

How did the “Reactivity with anti-gD2 antibody 1” value turn out when B3 was run?
Its value is “+ ((+): 70% or more)”.

What about the “Reactivity with anti-gD2 antibody 5” value of the same molecule?
The value was “− ((−): less than 30%)”.

And the “Reactivity with anti-gD2 antibody 13” value?
The value was “+ ((+): 70% or more)”.

What about the “Reactivity with anti-gD2 antibody 72” value of the same molecule?
Its value is “− ((−): less than 30%)”.

And the “Reactivity with anti-gD2 antibody 75” value?
The value was “− ((−): less than 30%)”.

And the “Reactivity with anti-gD2 antibody 78” value?
Its value is “− ((−): less than 30%)”.

What about the “Reactivity with anti-gD2 antibody 82” value of the same molecule?
Its value is “+ ((+): 70% or more)”.
